Laboratory results as given in paper PMC7261193, “The ancillary N-terminal region of the yeast AP-1 transcription factor Yap8 contributes to its DNA binding specificity”.

Assays:
[1] = biological target: GST-Yap8-7aa A23T;L26N;S29A;N31R;K35E;L37E;E39R (Saccharomyces cerevisiae) (UniProt Q06596); test: fluorescence anisotropy; settings: FA: 10 mM Tris-HCl pH 8, 50 mM NaCl, 0.5% NP-40, 1 mM DTT, 5% glycerol, 1 nM DNA, 25C (half volume protein elution buffer). Biotin EMSA: LightShift 1x buffer …
[2] = biological target: GST-Yap8-8aa N20Q;A23T;L26N;S29A;N31R;K35E;L37E;E39R (Saccharomyces cerevisiae) (UniProt Q06596); test: fluorescence anisotropy; settings: FA: 10 mM Tris-HCl pH 8, 50 mM NaCl, 0.5% NP-40, 1 mM DTT, 5% glycerol, 1 nM DNA, 25C (half volume protein elution buffer). Biotin EMSA: LightShift 1x buffer …
[3] = biological target: T1, GST-Yap8-4aa (Saccharomyces cerevisiae, UniProt Q06596 1-294, A23T;L26N;S29A;N31R); test: EMSA; FA: 10 mM Tris-HCl pH 8, 50 mM NaCl, 0.5% NP-40, 1 mM DTT, 5% glycerol, 1 nM DNA, 25C (half volume protein elution buffer). Biotin EMSA: LightShift 1x buffer, 50 ng poly(dI-dC), 2.5% glycerol, 0.05% NP-40, 5 mM MgCl2, 20 fmol probe, RT 20 min. 32P EMSA: 10 mM Tris-HCl pH 8.0, 50 mM NaCl, 1 mM DTT, 0.05% NP-40, 100 ng poly(dI-dC), 6% glycerol, 4C 30 min; settings: protein: recombinant, tags: GST (N-term), chain copies: 2, blunt
T1 sequence: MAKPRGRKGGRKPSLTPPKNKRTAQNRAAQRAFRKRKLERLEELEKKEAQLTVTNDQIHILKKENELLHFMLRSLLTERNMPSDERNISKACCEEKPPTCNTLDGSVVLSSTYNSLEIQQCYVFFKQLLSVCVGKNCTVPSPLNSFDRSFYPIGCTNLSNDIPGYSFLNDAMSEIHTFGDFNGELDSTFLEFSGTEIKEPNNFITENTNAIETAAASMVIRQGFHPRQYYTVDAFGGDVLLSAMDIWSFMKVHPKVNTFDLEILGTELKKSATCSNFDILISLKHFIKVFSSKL

[4] = biological target: T2, GST-Yap8-R7K,R11K (Saccharomyces cerevisiae, UniProt Q06596 1-294, R7K;R11K); test: as above; settings: protein: recombinant; tags: GST (N-term); chain copies: 2; blunt
T2 sequence: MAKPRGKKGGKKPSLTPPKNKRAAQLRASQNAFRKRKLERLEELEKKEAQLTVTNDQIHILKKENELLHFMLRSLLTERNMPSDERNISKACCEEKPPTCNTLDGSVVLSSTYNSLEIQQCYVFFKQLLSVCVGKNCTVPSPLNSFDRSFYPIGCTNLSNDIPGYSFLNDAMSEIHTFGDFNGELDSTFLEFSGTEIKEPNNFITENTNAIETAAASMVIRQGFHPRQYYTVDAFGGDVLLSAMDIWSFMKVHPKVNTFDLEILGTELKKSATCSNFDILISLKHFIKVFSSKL

[5] = biological target: T3, GST-Yap8-R11K (Saccharomyces cerevisiae, UniProt Q06596 1-294, R11K); test: as above; settings: protein: recombinant; tags: GST (N-term); chain copies: 2; blunt
T3 sequence: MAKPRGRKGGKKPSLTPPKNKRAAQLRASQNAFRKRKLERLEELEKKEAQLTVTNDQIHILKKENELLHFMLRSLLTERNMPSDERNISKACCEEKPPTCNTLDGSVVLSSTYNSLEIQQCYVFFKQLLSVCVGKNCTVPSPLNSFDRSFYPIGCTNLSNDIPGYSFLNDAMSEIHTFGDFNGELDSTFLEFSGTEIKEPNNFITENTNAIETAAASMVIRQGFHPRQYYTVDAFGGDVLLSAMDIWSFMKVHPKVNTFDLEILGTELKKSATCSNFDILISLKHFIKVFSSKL

[6] = biological target: T4, GST-Yap8-G10A (Saccharomyces cerevisiae, UniProt Q06596 1-294, G10A); test: as above; settings: protein: recombinant; tags: GST (N-term); chain copies: 2; blunt
T4 sequence: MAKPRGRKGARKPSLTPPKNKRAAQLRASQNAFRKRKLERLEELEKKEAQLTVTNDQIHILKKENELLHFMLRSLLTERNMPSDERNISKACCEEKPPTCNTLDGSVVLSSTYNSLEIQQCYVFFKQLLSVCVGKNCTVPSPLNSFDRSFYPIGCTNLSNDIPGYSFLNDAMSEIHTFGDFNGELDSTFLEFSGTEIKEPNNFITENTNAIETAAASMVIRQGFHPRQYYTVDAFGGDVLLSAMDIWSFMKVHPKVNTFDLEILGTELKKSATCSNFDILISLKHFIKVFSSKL

[7] = biological target: T5, GST-Yap8-N20A (Saccharomyces cerevisiae, UniProt Q06596 1-294, N20A); test: as above; settings: protein: recombinant; tags: GST (N-term); chain copies: 2; label: 32P 5'; blunt
T5 sequence: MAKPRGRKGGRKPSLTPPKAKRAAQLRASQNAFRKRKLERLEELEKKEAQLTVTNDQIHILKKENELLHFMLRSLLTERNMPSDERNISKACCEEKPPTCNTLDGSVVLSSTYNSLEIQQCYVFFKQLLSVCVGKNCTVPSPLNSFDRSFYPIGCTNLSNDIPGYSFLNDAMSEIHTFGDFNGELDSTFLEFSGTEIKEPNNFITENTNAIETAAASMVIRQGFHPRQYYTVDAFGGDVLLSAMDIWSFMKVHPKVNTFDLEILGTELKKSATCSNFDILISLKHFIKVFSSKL

[8] = biological target: T6, GST-Yap8 WT (Saccharomyces cerevisiae, UniProt Q06596 1-294); test: as above; settings: protein: recombinant; tags: GST (N-term); chain copies: 2; label: 32P 5'; blunt
T6 sequence: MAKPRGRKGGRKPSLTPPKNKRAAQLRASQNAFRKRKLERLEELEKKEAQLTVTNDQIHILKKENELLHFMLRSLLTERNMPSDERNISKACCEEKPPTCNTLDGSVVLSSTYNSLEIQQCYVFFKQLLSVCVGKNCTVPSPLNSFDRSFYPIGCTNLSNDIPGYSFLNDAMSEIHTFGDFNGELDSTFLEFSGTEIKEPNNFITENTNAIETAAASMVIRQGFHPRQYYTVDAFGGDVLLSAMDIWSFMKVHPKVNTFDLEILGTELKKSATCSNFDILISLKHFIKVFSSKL

[9] = biological target: T7, GST-Yap8-N20Q (Saccharomyces cerevisiae, UniProt Q06596 1-294, N20Q); test: as above; settings: protein: recombinant; tags: GST (N-term); chain copies: 2; label: 32P 5'; blunt
T7 sequence: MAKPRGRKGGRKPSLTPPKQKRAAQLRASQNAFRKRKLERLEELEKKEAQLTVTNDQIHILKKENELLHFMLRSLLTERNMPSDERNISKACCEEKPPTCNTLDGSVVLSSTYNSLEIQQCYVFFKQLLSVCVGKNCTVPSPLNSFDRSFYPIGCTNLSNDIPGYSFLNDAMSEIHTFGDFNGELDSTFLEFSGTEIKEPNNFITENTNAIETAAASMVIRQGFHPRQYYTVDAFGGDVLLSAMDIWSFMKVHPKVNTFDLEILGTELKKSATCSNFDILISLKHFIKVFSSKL

[10] = biological target: T6, GST-Yap8 WT; test: fluorescence anisotropy; series c; FA: 10 mM Tris-HCl pH 8, 50 mM NaCl, 0.5% NP-40, 1 mM DTT, 5% glycerol, 1 nM DNA, 25C (half volume protein elution buffer). Biotin EMSA: LightShift 1x buffer, 50 ng poly(dI-dC), 2.5% glycerol, 0.05% NP-40, 5 mM MgCl2, 20 fmol probe, RT 20 min. 32P EMSA: 10 mM Tris-HCl pH 8.0, 50 mM NaCl, 1 mM DTT, 0.05% NP-40, 100 ng poly(dI-dC), 6% glycerol, 4C 30 min; settings: protein: recombinant; tags: GST (N-term); chain copies: 2; label: 5' FAM; blunt

CTTTTTGTTTGATTAATAATCAACTTTAGCG (double strand) [ACR3-WT (FAM)]
Kd [1]: 9.3 nM
Kd [2]: 15.1 nM

B1: TRX2short (dsDNA)
DNA 1: ATTGTTTATACTCTTAGTAAAGGATGCTCCCTACAAGGTGGCTCTTTTCTTACTAAGCGCGTTCAGTTTC
DNA 2: GAAACTGAACGCGCTTAGTAAGAAAAGAGCCACCTTGTAGGGAGCATCCTTTACTAAGAGTATAAACAAT
binding result ([3]; label: 32P 5'): no binding

B2: ACR3short (WT) (dsDNA)
DNA 1: TCTTAATTATCTTTTTGTTTGATTAATAATCAACTTTAGCGGCAACGCTCC
DNA 2: GGAGCGTTGCCGCTAAAGTTGATTATTAATCAAACAAAAAGATAATTAAGA
binding result [4]: no binding
binding result [5]: no binding
binding result [6]: no binding
binding result [3]: binds

B3: GSH1short (dsDNA)
DNA 1: TTCTGCCCAACGACGGCTGCCATTAGTCAGCATGGCGCGCACGTGACTACA
DNA 2: TGTAGTCACGTGCGCGCCATGCTGACTAATGGCAGCCGTCGTTGGGCAGAA
binding result [7]: no binding
binding result [8]: no binding
binding result [9]: no binding

B4: ACR3-M3 (FAM) (dsDNA)
DNA 1: CTTTGCGGCTGATTAATAATCAACCGGAGCG
DNA 2: CGCTCCGGTTGATTATTAATCAGCCGCAAAG
Kd [10]: 19.4 ± 4.1 nM
